Consider 22 sequences from a protein production outcome set (Wang et al. 2014).

The data set in a line: label from the status in PepcDB records.
Regarding “KVKIPYQKYKLDNGLTVILAPEGSDPLVHVDVTYHVGSAREEIGKSGFAHFFEHMMFQGSENVGDQEHFKIITEAGGTLNGTTNRDRTNYFETVPANQLEKMLWLESDRMGFLLDAVSQRKFEIQRSTVKNERAQRYDNRPYGLIWERMSEALYPEGHPYSWQTIGYVEDLERVDVNDLKAFFLRWYGPNNATITIGGDLDVEQTLAWVNKYFGSIPRGP”, the protein production entry was “failed”.

As for “MSVETAQRSEVGVAMARSWLLVPAVGSEVLAAAAASGADSLVIDLEDGLPFAAKDEGRARTAEWLARNAGWVRINDATTPHWQRDLDAIRGLPGVRGLMLSKTESPEQVRDTAEGIPGIPVVALVESAAAIVAADDIARTAPVSRLAFGIGDYCRDTGAGRTPMALAYARSRLVNASRAARIGAPIDGPTLSLDAEAVRDDTRLAREMGMTGKLTLATEQVPVINTALAPDSNDISWAETTIARLGADGSRVTHGGHPPQLARAHDILRRAAHFASRT”, the protein production result is “failed”.

Turning to “MKILVCITHVPDTTSKITFADNKFNTAGVQFIIGPYDEYALSRAVELKEQSGGTVTVLNVGDAETEPTIRKALAIGADDAIRINAVPKDAGFVAAQIAAVAKSGGYDLILMGRESIDYNGGLVHGLVADALGMPCVTPIMKLDIENGVAKMTREIEGGKESVECALPFVAGCQEPIAEWKIPNMRGIMSARTKPLNVVEPVVVADDVVYGTFSLPAPKGACKMIDAANPEELLTLLRNEAKVL”, the protein production entry was “failed”.

As for “MTSREDEIRDFLATHGYADWNRTPLAGDASSRRYQRLRSPTGAKAVLMDWSPEEGGDTQPFVDLAQYLRNLDISAPEIYAEEHARGLLLIEDLGDALFTEVINNDPAQEMPLYRAAVDLLIHLHDAQTPELARLDPETLSEMTRLAFSEYRYAILGDAAEDNRKRFEHRFAQILSAQLEGDMVFVHRDFHAQNLLWLPEREGLARVGVIDFQDAKLGHRAYDLVSLLQDARRDVPAQVEAQMIDHYIQATGVDESHFRSAYAVIAVQRNMRILGIFARLSQRFGKRHYIEFVPRVWAHFERGLAHPALASAAEEILNALPAPAPEVLERLRA”, the protein production entry is “not failed”.

On to “LKMLRDMTGLPHNRKCFDCDQRGPTYVNMTVGSFVCTSCSGSLRGLNPPHRVKSISMTTFTQQEIEFLQKHGNEVCKQIWLGLFDDRSSAIPDFRDPQKVKEFLQEKYEKKRWYVPPEQAK”, for which the protein production result is listed as “not failed”.

As to “MAPSSSTFKQVADDWLKQYANDVKVSSVRAREKAIQHAIERFNTKPIQTIKKHDYQRFVDDISAQYSKNYVDSIVASTNMIFKYAYDTRLIKAMPSEGIKRPKKKLEHHHHHH”, the protein production entry was “not failed”.

On to “MKILSVSYIYLLMGISSYSYANFDLGINEFNAPNELTELSELNTSNDNNAIIELINSTNSQVTIIQHNVNKTGSNKAKVKQTGYDNTAAVMQLGSNNVGLIAQNGTNNLATLKQLGFNHEGAILQEGNDNIAHLVQTGNGKQNVVNQTGDSNIAAAVNKNNGAGFSINQTGNQGIILVNGMDRFISIVN”, for which the protein production result is recorded as “failed”.

“MRGRIMSTFTTISSDKLARLIGTANAPVLIDVRTEEDFAADRRLIPGSIRLSHENVPDWGAAFAGRSVIVSCLRGAKLAQGTAAWLRQLGVQAETLDGGFEGWKEAKLPLLDTRKLPPRDAKGRTVWVTRARPKVDRIACPWLIRRFVDPNAVFLYVAPSEVVAVGERFNAAPFDIENVFWSHRGELCTFDVMIEEFGIATPALLRLATLVRGADTARPDLAPEAPGLLAASLGLSRMYDDDLEQLEAGLLLYDAFYRWCRDATAETHNWPTNKVKA”: the protein production result was “failed”.

Regarding “MEADRGRNNKVRCAVVDTNVLMYVYLNKADVVGQLREFGFSRFLITASVKRELEKLEMSLRGKEKVAARFALKLLEHFEVVETESEGDPSLIEAAEKYGCILITNDKELKRKAKQRGIPVGYLKEDKRVFVELLD”, the protein production entry is “not failed”.

On to “MDLLLFSDVHGDREACQRLVDRAADVDVVVGAGDFCVARRNLQAPIETLSAIDTPTVLVPGNAETEDELEAQIDAAGWGAAHVLHGGGTTIDGTPFFGLGGGVPVTPFGPWSYDLTEDEARTLLSDCPEGAVLVAHSPPKDAVDRDSKGQSLGSVAVREAIEAHTPRLTVCGHIHGSWEETAHVGPTPVHNAGPHGRIWTLSEADGA”, for which the protein production entry is “failed”.

On to “MRRLQREIRTYDEEQLKQVREELTTYDLMTRNALLQTAHDLRAKVEQEAVPEGEQATTYLKAVVDDRRHELSVFLPATQASAALENVRRHLVNQILSIGGKAKKLETERCAAERHLKRPTVEVVQREHDAHLRRLRQWQEVQSRFQTWHTYEQAYARWPDLAAAFDSGPTEAATRVATELHKRTLATMQEQDRWREFLRQATEQEHQRQLTPPEDDLPEDDLEEDTWAAAESSEPSGSLFSRLGHTLSRLMAPPGPDEVPSAATAPRETDGWDDVQPQIAPDPRSTVPGLWDDADDLTPVSPVAPARPAPSPPVYDAAAVPALDIDFSAAPRRSRTPAEQMPDPFARAARVRSARRTTTPLVPVPQQLDAAEMPAPRPARTPPGRPATAGNVAPPSAPRTARPPSPTLADFDLWDDEEDMPFGPPATPAPAAASVPQMVPTPRAAARPTPRPVSSPGPSPVPVSPASASVSHAAPWEEPAAGRPAPAPSGVSRRGATRLALPSEQLLDPLPNGARNTVQMDLDAERRGDMINETLRQFGLQAKVVDLARGPTVTRYEIEPAPGEKISRIASLSNDLARALAVGGVRVEAPVPGKSVIGLEVPNAEREPVTFHQATANPAFKNTRAKLPIILGKSIDGSMMVGDLAKMPHLLVAGSTGSGKSVCVNTLITSLLYRYLPTELRFVMIDPKMVELTPYDGIPHLVRPVVTNPADAAGVLLGAVAHMERRYKMMSQVGAKNLEQFNAKMRAVGEVELPHLVIIIDELADLMITSPKEVESAIMRLAQMARATGMHLILATQRPSVDILTSLIKVNIPARIAFAVSSSHDSRTILDTTGAERLTGMGDMLFYQPGLVKPLRLQGPYISEAESARITDELRRMMFDDDFIEAYGADFEGMISSSGPGGDRSQLDFSDPLLRQAALVCIEEGQGSVSRLQRRLSVGHARAGKLMDLLEAMNIVGPHQGSKPREVLIHEADLPEYFGK”, for which the protein production result was “failed”.

Take “MRHPYVFPACVAGALLVAGCAPKQTDEETVERAFQDVNVVDETNLSEVMLTVTDPNEAISYYQRTLKSDPDRLDLRRGLATSFVRAKRFTEAASAWEKVTELKDSTHEDSVNYADALIRSGDWDTAEKVLDTVPPTYETFKRYRLEAMMADANKEWRKADSFYETAIGLTTTPAGAFNNWGYSKLTRGDFSGAEKLFGQAIRQDPTLFTAKNNLVLARSAQRKYTLPVVPMTQSERAQLLHTMALSAVRQGDIQTSKSLLRDAIDTHPQHFDAAVRALEALERSG”: the protein production result is “failed”.

As to “MPRKNQDLYHHYPQKDRKFTMYKLSEKGEQIREMFSDIAPRYDFLNRLLSFGIDRRWRRIAVQCARWSEGGKILDVATGTGDVALEIARQTPDSVSIIGIDITEGMVVLGREKVAQSPYARRITLEIAPCEAIPFPDNTFDSVTIAFGIRNVVDRRQGLAEMQRILKPGGRAVILEFSTPRSQFFKRVYYFYFLRLLPAIGGLFSNFSAYKYLPDSVLEFPSQEEFKTLMRSVGFHSTTHRDLTFGIATIYTGEKAAQN”, the protein production entry was “failed”.

As for “MGRLGWVDPESFMQRNHELMDAYSAGKLAMEEFMAFSLEPMAGRTPEEVDHLVGPWVEDVIEPIIYSDACKCIAQHRAKGDRILVISASGVHLVKPIAERLGIDEVLGIELDVQHGVYSGATVGVLTYREGKITRLMEWLDAEGENLEGASFYSDSRNDLPLLLKVDHPNVVNPDPVLLEHAQQAGWPVHTWV”, the protein production result is recorded as “failed”.

On to “MRRAGYLHLYGLNLVFDRVGKGPPVLLVAEEASRWPEALPEGYAFYLLDLPGYGRTEGPRMAPEELAHFVAGFAVMMNLGAPWVLLRGLGLALGPHLEALGLRALPAEGVEVAEVLSSKLSYGNIDLGGNL”, for which the protein production entry is “not failed”.

For the sequence “MAEAKSRVGRPSGDTQNRDKLILAARNLFIERPYAQVSIREIASLAGTDPGLIRYYFGSKEKLFSTMIHETAMPVLAQLHKARRETRQESPAALLQTYYSVMSKHPHFPRLMLRIAGLDQSLPENAEVTKAFYEVVNFENIAIFQRLKDKNLLKDDVDAHCAQLSFFAMMVFPFIVPENLLERVGIELTPDFLQLLAEQNTRLLQRGLMDVKDERDE”, the protein production entry is on record as “not failed”.

For the sequence “MNDNVLRYIKRVFNLITILGFVATIVGGIYLWRLGAFQNQAVLQQLIVAHRFLGPLIFLCMQILQVIVPIIPGGITMAAGVMIFGPVWGFVYNYFGIVAGSFLLFHFGKKYGSSLAKTFVKEKTYNKYMAWLDKGQKRFNIVFALLILSPIAPDDALVLIASQTKMSWKFFTWSILLCKPLPILLYSYLLIFGGDLLGHIL”, the protein production result is “failed”.

As to “MASQIDQYAVFGNPINHSKSPFIHTLFARQTQQSMIYTAQCVPVDGFTEAAKHFFAQGGRGCNVTVPFKEEAYRFADRLTERARLAGAVNTLKKLDDGEILGDNTDGEGLVQDLLAQQVLLKGATILLIGAGGAARGVLKPLLDQQPASITVTNRTFAKAEQLAELVAAYGEVKAQAFEQLKQSYDVIINSTSASLDGELPAIDPVIFSSRSVCYDMMYGKGYTVFNQWARQHGCAQAIDGLGMLVGQAAESFMLWRGLRPGTKQILRELRKNLEGAL”, the protein production result is given as “not failed”.

As for “MNKYLSFIFASVLTLTGVQLSKASNPSDSLAIVSAKWERTSSLQGIQLKQASIEGLFGGKQSISILTIGRAEGYTAFIATTDSLTTTSQLAEQSRSSAAINGSYFSIKEGFSTCYLRKNEAVIDTTTTEERHLRVNGAVHMVDNNIRIIPWNDENEKKGFPLDGDILASGPLLMQDGKTCDFTTIDREFSETRHPRSAIALTKEGDIMLVAVDGRAEGHADGMSIAELAYLLRILKAHCALNLDGGGSTTLWVNGQVVNHPSDNKKFDNKGERKVHNIIAVRRLTNP”, the protein production result is “failed”.

For “MVHHGQMHAQPGVGLRPDTPVASGQLPSTSIRSRRSGISKAQRETWERLWPELGLLALPQSPRGTPVDTRAWFGRDAPVVLEIGSGSGTSTLAMAKAEPHVDVIAVDVYRRGLAQLLCAIDKVGSDGINIRLILGNAVDVLQHLIAPDSLCGVRVFFPDPWPKARHHKRRLLQPATMALIADRLVPSGVLHAATDHPGYAEHIAAAGDAEPRLVRVDPDTELLPISVVRPATKYERKAQLGGGAVIELLWKKHGCSERDLKIR”, the protein production result is recorded as “failed”.

On to “MITLNAWYVTWTELYKKKTVKMTTIYKNHSYYNSRVKNSIGKMYLQDIKTYHVQKFLNDLIDSGLAHGTVSNIRFMLSDMFDKAVLSEYIRKNPCIGVEMPKEVKKERLEHHHHHH”, for which the protein production entry is “failed”.

Regarding “MSDAQDSRVGSMFGPYHLKRLLGRGGMGEVYEAEHTVKEWTVAVKLMTAEFSKDPVFRERMKREARIAGRLQEPHVVPIHDYGEVDGQMFLEMRLVEGTDLDSVLKRFGPLTPPRAVAIITQIASALDAAHADGVMHRDVKPQNILITRDDFAYLVDFGIASATTDEKLTQLGTAVGTWKYMAPERFSNDEVTYRADIYALACVLHECLTGAPPYRADSAGTLVSSHLMGPIPQPSAIRPGIPKAFDAVVARGMAKKPEDRYASAGDLALAAHEALSDPDQDHAADILRRSQESTLPGTAAVTAQPPTMPTVTPPPIQAAPTGQPSWAPNSGPMPASGPTPTPQYYQGGGWGAPPSGGPSPWAQTPRKTNPWPFVAGAAAVVLVLVLGAIGIWIAIRPKPVQPPQPVAEERLSALLLNSSEVNAVMGSSSMQPGKPITSMDSSPVTVSLPDCQGALYTSQDPVYAGTGYTAINGLISSEPGDNYEHWVNQAVVAFPTADKARAFVQTSADKWKNCAGKTVTVTNKAKTYRWTFADVKGSPPTITVIDTQEGAEGWECQRAMSVANNVVVDVNACGYQITNQAGQIAAKIVDKVNKE”, the protein production result is on record as “failed”.
